Molecular target: modified CypA (S99T, F113G, C115M) (CypAgtm), overexpressed in E. coli and purified (UniProt P62937)
Test: direct fluorescence binding assay, purified CypAgtm

For “alpha-cyclopentyl, sarcosine11-CsA (CpSar11-CsA) (peptide)”, the Kd was 9 nM.
